Measurements as given in US20200239927A1, “SENSOR FOR CYANURIC ACID DETECTION” (WISCONSIN ALUMNI RESEARCH FOUNDATION, priority 2019, published 2020).

Columns and labels:
AtzR [1] = assay: Fold repression of GFP reporter by co-expressed AtzR; type: cell-based; conditions: minimal medium
Protocol: (§1) To measure fold repression, each reporter plasmid was co-transformed with low and high copy sensor plasmid separately. The end results include two test versions for each reporter plasmid: (the reporter plasmid, low copy sensor plasmid), (the reporter, high copy sensor plasmid), reporter plasmids were transformed with either of the sensor plasmids. Similar to the process of measuring promoter activity, the activities of at least 3 biological replicates were measured for each reporter and sensor plasmid pair. The only difference was that 50 μg/mL kanamycin and […] Spectinomycin were used to maintain both of the reporter and sensor plasmids. The fold repression was calculated as a ratio of the fluorescence of reporter divided by the fluorescence of this reporter when it was paired with a sensor plasmid. To measure fold induction, the process of obtaining fold repression was followed. The only difference was the addition of 200 μM cyanuric acid during the growth. The fold induction was calculated as a ratio of the fluorescence of the induced state divided by the fluorescence of the repressed state.

AtzR [2] = assay: Fold induction of GFP reporter by cyanuric acid with co-expressed AtzR; type: cell-based; conditions: for response to cyanuric acid (inducibility) / fold activation (ratio of GFP with and without cyanuric acid): 200 μM cyanuric acid; for response to cyanuric acid (inducibility) / uninduced baseline (no cyanuric acid): AtzR co-expressed; for increase in reporter expression in response to cyanuric acid: E. coli, medium not stated
Protocol: as §1

DH10B E. coli cells = assay: Promoter activity: constitutive GFP reporter expression without AtzR; type: cell-based; conditions: for transcriptional activity compared with WT promoter, measured by reporter expression: E. coli, promoter only, no AtzR; for GFP reporter expression of cells carrying only the promoter: no AtzR present, rich and minimal media
Protocol: Fluorescence measurement: To measure promoter activities, transformed reporter plasmids (including WT promoter plasmid) were transformed into DH10B cells (NEB) using electroporation and plated cells on LB agar plates with kanamycin (50 ug/mL). After overnight growth at 37° C., at least 3 individual colonies were selected for each reporter plasmid and inoculated into 150 μL LB medium with 50 μg/mL kanamycin in a 96-well plate. After 3 hours of growth at 37° C. in a multi-plate shaker (1100 rpm, Southwest Science), cells were diluted 1:50 into 150 μL LB medium or MOPS medium (supplemented with 0.4% glucose and 1× BME vitamin) with 50 μg/mL kanamycin in a 96-well plate. Cells were grown at 37° C. with shaking (1100 rpm). After 16 hours, OD600 and fluorescence (excitation at 488 nm and emission at 520 nm with a gain of 40) of each well was measured using a multi-well plate reader (Synergy HTX, BioTek .Inc). Fluorescence was normalized against OD600. Blank (normalized fluorescence of cells carrying no GFP) was subtracted from those measurements. Mean and standard deviation of each reporter plasmid activity were calculated from measurements of 3 biological replicates.

AtzR [3] = assay: Cyanuric acid dose response and visual detection limit of the AtzR biosensor; type: cell-based, E. coli DH10B; conditions: for cyanuric acid concentration at which signal begins to saturate: rich and minimal media (125 ppm)
Protocol: To obtain transfer functions of various reporter and sensor plasmid pairs, different concentrations of cyanuric acid were delivered via DMSO to cultures (less than 1% of the total volume). After growth for 16 hours, fluorescence was measured and normalized similar to previous experiments.
Visual detection limit: To determine the visual detection limit in LB and MOPS media, E. coli DH10B with or without constitutive GFP expression was grown in LB with appropriate antibiotics for 16 hours in […] on a shaker(1100 rpm). Two 2 mL aliquots from each culture were spun down at 5000 G for 5 minutes in a benchtop centrifuge at room temperature. The media was aspirated out and the cell pellets resuspended in either 2 mL LB or 2 mL MOPS media. The spin-down and resuspension procedure was repeated two more times. Then, cells without GFP in LB (or MOPS) were mixed with cells carrying GFP in LB (or MOPS) to 150 μL with various ratios (cells without GFP-cells with GFP: 100%-0%, 95%-5%, 90%-10%, 85%-15%, 70%-30%, 55%-45%, 30%-70%, 0%-100%). After measuring the fluorescence and OD600 of the mixed cultures in a 96-well plate, the cultures were transferred to ultra-thin strip tubes ordered by increasing percentage of cells carrying GFP. Five individuals were asked to identify the culture that they could be confident to tell apart (in terms of the color of the culture) from the culture containing no cells with GFP (100%-0%). The identification process for cultures in LB and MOPS was performed by placing culture tubes in front a piece of white paper. The weighted average of fluorescence of cultures was identified by five individuals for cultures in LB and MOPS. The calculated weights averages were defined and used as the visual detection limits in FIGS. 7-10 related experiments.

AtzR, sequence (as listed by the source): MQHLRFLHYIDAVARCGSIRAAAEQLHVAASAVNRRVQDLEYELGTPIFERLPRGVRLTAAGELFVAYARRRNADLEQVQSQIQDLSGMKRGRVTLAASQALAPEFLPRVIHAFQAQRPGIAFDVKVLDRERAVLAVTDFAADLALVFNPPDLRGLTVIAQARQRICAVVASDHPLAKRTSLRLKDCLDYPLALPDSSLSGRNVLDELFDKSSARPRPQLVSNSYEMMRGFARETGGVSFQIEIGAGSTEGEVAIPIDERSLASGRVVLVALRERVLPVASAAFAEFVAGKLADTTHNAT

Molecule: Promoter 10: group 2 promoter variant; apFAB spacer replaced with RBS L and R (DNA TTGACAGGTGCCGGATCGGCACCTATAATAGATTCATGATGA; expressed or natural sequence)
- fold repression (ratio of GFP expression without and with AtzR) (AtzR [1]): 50 fold
- response to cyanuric acid (inducibility) (AtzR [2]): lack of cyanuric acid response
- increase in reporter expression in response to cyanuric acid (AtzR [2]): greater than two-fold increase
- transcriptional activity compared with WT promoter, measured by reporter expression (DH10B E. coli cells): transcriptionally more active than WT promoter

Molecule: Promoter 12: group 2 promoter variant, sequence SEQ ID NO: 14 (DNA GGTGCCGACACGGCACCTTTTTGTACCTATAATAGATTCATGATGA; expressed or natural sequence)
- transcriptional activity compared with WT promoter, measured by reporter expression (DH10B E. coli cells): transcriptionally more active than WT promoter

Molecule: Promoter 13: group 2 promoter variant; apFAB spacer replaced with RBS in R-L orientation (DNA TTGACAGGTGCCGATCCGGCACCTATAATAGATTCATGATGA; expressed or natural sequence)
- increase in reporter expression in response to cyanuric acid (AtzR [2]): greater than two-fold increase
- transcriptional activity compared with WT promoter, measured by reporter expression (DH10B E. coli cells): transcriptionally more active than WT promoter

Molecule: Promoter 15: group 2 promoter variant; RBS placed upstream of -35 (DNA GGTGCCGATCCGGCACCTTGACATCGCATCTTTTTGTACCTATAATAGATTCATGATGA; expressed or natural sequence)
- lower threshold of detection of cyanuric acid (AtzR [3]; minimal media): ~15 µM
- cyanuric acid concentration at which signal begins to saturate (AtzR [3]): 1 mM
- lower threshold of detection of cyanuric acid (AtzR [3]; rich media): ~25 µM
- transcriptional activity compared with WT promoter, measured by reporter expression (DH10B E. coli cells): transcriptionally more active than WT promoter

Molecule: Promoter 16: group 2 promoter variant, sequence SEQ ID NO: 18 (DNA GGTGCCGATCCGGCACCTTTTTGTACCTATAATAGATTCATGATGA; expressed or natural sequence)
- transcriptional activity compared with WT promoter, measured by reporter expression (DH10B E. coli cells): transcriptionally more active than WT promoter

B1: Promoter 2: group 1 promoter variant; sequence 3' of ABS 3 replaced with corresponding region of apFab71 (nucleic acid)
DNA: TCGGTGCCGGATCGGCACCAGTTAGGTCGGAAAAAGGCGGCAGTCAAGTGCGCTTTTTGTACCTATAATAGATTCATGATGA
modifications: expressed or natural sequence
- lower threshold of detection of cyanuric acid (AtzR [3]; minimal media): ~15 µM
- cyanuric acid concentration at which signal begins to saturate (AtzR [3]): 1 mM
- lower threshold of detection of cyanuric acid (AtzR [3]; rich media): ~25 µM
- response to cyanuric acid (inducibility) (AtzR [2]): inducible
- fold activation (ratio of GFP with and without cyanuric acid) (AtzR [2]; medium not specified): approximately 10 fold
- fold activation (ratio of GFP with and without cyanuric acid) (AtzR [2]; minimal media): 15 fold
- increase in reporter expression in response to cyanuric acid (AtzR [2]): greater than two-fold increase
- uninduced baseline (no cyanuric acid) (AtzR [2]): about 4000 fluorescence units
- transcriptional activity compared with WT promoter, measured by reporter expression (DH10B E. coli cells): transcriptionally more active than WT promoter

B2: Promoter 5: group 1 promoter variant with consensus E. coli -35 and apFab71 3' sequence, on a high-copy number plasmid (nucleic acid)
DNA: TCGGTGCCGGATCGGCACCAGTTAGGTCGGAAAAAGGCGGCAGACAAGTGCGCTTTTTGTACCTATAATAGATTCATGATGA
- fold activation (ratio of GFP with and without cyanuric acid) (AtzR [2]; medium not specified): approximately 10 fold
- increase in reporter expression in response to cyanuric acid (AtzR [2]): greater than two-fold increase
- uninduced baseline (no cyanuric acid) (AtzR [2]): 22000 fluorescence units
- transcriptional activity compared with WT promoter, measured by reporter expression (DH10B E. coli cells): transcriptionally more active than WT promoter

B3: Promoter 6: group 1 promoter variant with consensus E. coli -35 and apFab71 3' sequence, on a low-copy number plasmid (nucleic acid)
DNA: TCGGTGCCGGATCGGCACCAGTTAGGTCGGAAAAAGGCGGCAGACAAGTGCGCTTTTTGTACCTATAATAGATTCATGATGA
- fold repression (ratio of GFP expression without and with AtzR) (AtzR [1]): 10 fold
- fold activation (ratio of GFP with and without cyanuric acid) (AtzR [2]; medium not specified): approximately 10 fold
- increase in reporter expression in response to cyanuric acid (AtzR [2]): greater than two-fold increase
- transcriptional activity compared with WT promoter, measured by reporter expression (DH10B E. coli cells): transcriptionally more active than WT promoter

B4: Promoter 1: group 1 promoter variant; Pseudomonas -10 site replaced with consensus E. coli -10 site (nucleic acid)
DNA: ATGCGAGTCAAAGCAAGATCGGTGCCGGATCGGCACCAGTTAGGTCGGAAAAAGGCGGCAGTCAAGTGCGCAGGGCGGCGTTATAATTGAACGAA
modifications: expressed or natural sequence
notes: group 1 promoter variant; Pseudomonas -10 site replaced with consensus E. coli -10 site
- lower threshold of detection of cyanuric acid (AtzR [3]; minimal media): ~15 µM
- cyanuric acid concentration at which signal begins to saturate (AtzR [3]): 1 mM
- lower threshold of detection of cyanuric acid (AtzR [3]; rich media): ~25 µM
- transcriptional activity compared with WT promoter, measured by reporter expression (DH10B E. coli cells): transcriptionally more active than WT promoter

B5: Promoter 11: group 2 promoter variant; RBS placed upstream of -35 (nucleic acid)
DNA: CAAGATCGGTGCCGGATCGGCACCAGTTAGGTCTTGACATCGCATCTTTTTGTACCTATAATAGATTCATGATGA
modifications: expressed or natural sequence
- transcriptional activity compared with WT promoter, measured by reporter expression (DH10B E. coli cells): transcriptionally more active than WT promoter

B6: Promoter 14: group 2 promoter variant, sequence SEQ ID NO: 16 (nucleic acid)
DNA: GACCTAACTGGTGCCGATCCGGCACCGATCTTGTTGACATCGCATCTTTTTGTACCTATAATAGATTCATGATGA
modifications: expressed or natural sequence
- transcriptional activity compared with WT promoter, measured by reporter expression (DH10B E. coli cells): transcriptionally more active than WT promoter

B7: Promoter 7: group 1 promoter variant of presumed intermediate strength, -35 site mutated toward E. coli consensus (nucleic acid)
DNA: TCGGTGCCGGATCGGCACCAGTTAGGTCGGAAAAAGGCGGCAGACAAGTGCGCTTTTTGTACCTATATAGATTCATGATGA
modifications: expressed or natural sequence
- transcriptional activity compared with WT promoter, measured by reporter expression (DH10B E. coli cells): transcriptionally more active than WT promoter
- GFP reporter expression of cells carrying only the promoter (DH10B E. coli cells): highest expression

B8: Promoter 4: group 1 promoter variant weakened by deleting a single base from the -10 site (nucleic acid)
DNA: TCGGTGCCGGATCGGCACCAGTTAGGTCGGAAAAAGGCGGCAGTCAAGTGCGCTTTTTGTACCTATAAAGATTCATGATGA
modifications: expressed or natural sequence
- response to cyanuric acid (inducibility) (AtzR [2]): only promoter variant 2 was inducible

B9: Promoter 3: group 1 promoter variant weakened by deleting a single base from the -10 site (nucleic acid)
DNA: TCGGTGCCGGATCGGCACCAGTTAGGTCGGAAAAAGGCGGCAGTCAAGTGCGCTTTTTGTACCTATATAGATTCATGATGA
modifications: expressed or natural sequence
- response to cyanuric acid (inducibility) (AtzR [2]): only promoter variant 2 was inducible

B10: Promoter 8: group 1 promoter variant of presumed intermediate strength, -35 site mutated toward E. coli consensus (nucleic acid)
DNA: TCGGTGCCGGATCGGCACCAGTTAGGTCGGAAAAAGGCGGCAGACAAGTGCGCTTTTTGTACCTATAAAGATTCATGATGA
modifications: expressed or natural sequence
- increase in reporter expression in response to cyanuric acid (AtzR [2]): greater than two-fold increase
- transcriptional activity compared with WT promoter, measured by reporter expression (DH10B E. coli cells): transcriptionally more active than WT promoter
- GFP reporter expression of cells carrying only the promoter (DH10B E. coli cells): highest expression
